Test results: patent publication US20240218342A1, “SITE-SPECIFIC GLYCAN REMODELING OF LYSOSOMAL ENZYMES AND APPLICATIONS THEREOF” (priority 2021, published 2024)

Biological target: GlcNAc-peptide derived from rhGAA containing N470 glycosite (human)
Sequence (peptide, as listed by the source): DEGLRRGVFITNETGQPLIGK

- transglycosylation of oxazoline 1 to the GlcNAc-peptide, yield of glycopeptide 66: 53%
Substance: Endo A-N171A (enzyme)
